Values of other authors as cited in patent US6406710B1, “Protein occlusion for delivery of small molecules” (priority 1998, dated 2002).

Conditions: relatively high doses, human clinical trials

B1: BDNF: Brain Derived Neurotrophic Factor, a neurotrophin proposed as carrier protein (protein, UniProt P23560 19-247, looked up)
Neurotrophic factor BDNF …: APMKEANIRGQGGLAYPGVRTHGTLESVNGPKAGSRGLTSLADTFEHVIEELLDEDQKVRPNEENNKDADLYTSRVMLSSQVPLEPPLLFLLEEYKNYLDAANMSMRVRRHSDPARRGELSVCDSISEWVTAADKKTAVDMSGGTVTVLEKVPVSKGQLKQYFYETKCNPMGYTKEGCRGIDKRHWNSQCRTTQSYVRALTMDSKKRIGWRFIRIDTSCVCTLTIKRGR
In the case of B1, the tolerability is given as “well tolerated with insignificant adverse effects”.
